The values below come from publication PMC9210550.

The target of data set [1] is T1, ZCCHC8 core (NEXT subunit);RBM7 core FAFA;MTR4 (human;human;human, UniProt Q6NZY4;Q9Y580;P42285 1-415+508-707;6-86;1-1042, internal_change|F13A;F52A|). Description: EMSA.
In data set [2] the target is T2, ZCCHC8 core (NEXT subunit);RBM7 core (NEXT subunit);MTR4 (human;human;human, UniProt Q6NZY4;Q9Y580;P42285 1-415+508-707;6-86;1-1042, internal_change||). Put plainly: EMSA. (A gel shift assay detects complexes by their altered migration in electrophoresis.)
The target in data set [3] is ZCCHC8 core delta HD;RBM7 core (NEXT subunit);MTR4 (human;human;human, UniProt Q6NZY4;Q9Y580;P42285 176-415+508-707;6-86;1-1042, internal_change||). Description: EMSA.
In data set [4] the target is T2, ZCCHC8 core (NEXT subunit);RBM7 core …. Put plainly: EMSA. This is another data set of the same source.
Data set [5] has as its target T1, ZCCHC8 core (NEXT subunit);RBM7 core …. Description: EMSA. The source holds these as a separate data set.
Data set [6] deals with ZCCHC8 core delta ZK;RBM7 core (NEXT subunit);MTR4 (human;human;human, UniProt Q6NZY4;Q9Y580;P42285 1-226+245-415+508-707;6-86;1-1042, internal_change||). Put plainly: EMSA.
Data set [7] deals with T2, ZCCHC8 core (NEXT subunit);RBM7 core …. Put plainly: cryo-EM.
Data set [8] has the same target. Description: cryo-EM. This is another data set of the same source.

Like-named read-outs stand apart in the source and are kept apart here.

B1: 3' A5U5A10-tailed RNA duplex (dsRNA)
RNA 1: AGUGCGCUGUAUCUUCAAGGCCACU
RNA 2: AGUGGCCUUGAAGAUACAGCGCACUAAAAAUUUUUAAAAAAAAAA
As usually defined, the Kd is a measure of binding affinity in units of concentration. Read a low Kd as higher affinity. B1: the binding signal was approximately 3 fold weaker than NEXT in data set [1] and approximately 2 fold weaker than NEXT in data set [3]. Besides, binding in data set [2] was put at a Kd of 42 nM.

B2: 3' A20-tailed RNA duplex (dsRNA)
RNA 1: AGUGCGCUGUAUCUUCAAGGCCACU
RNA 2: AGUGGCCUUGAAGAUACAGCGCACUAAAAAAAAAAAAAAAAAAAA
For B2, the results for the binding signal in data set [4], in data set [5] and in data set [6] were ~10 fold weaker than NEXT on A5U5A10 tail, ~2 fold weaker than NEXT on A20 tail and ~4 fold tighter than NEXT on A20 tail, respectively.

B3: cryo-EM substrate 1 (structured_RNA)
RNA: ACAUGAGGAUCACCCAUGUAAUCUCUUUCAAAAAAUACAAAAAAAA
modifications: 2'-pyrene modified U at position 36
For the molecule B3, the binding result in data set [7] is on record as “binds”.

B4: cryo-EM substrate 2 (dsRNA)
RNA 1: GGCGCGCGCCAAAAAUUUUUAAAAAAAAAA
RNA 2: GGCGCGCGCCAAAAAUUUUUAAAAAAAAAA
Regarding B4, the binding result in data set [8] is given as “binds”.
